The labels stand for the following.
T1: human NKG2D on effector cells (human, UniProt P26718 1-216)
T1 sequence (looked up): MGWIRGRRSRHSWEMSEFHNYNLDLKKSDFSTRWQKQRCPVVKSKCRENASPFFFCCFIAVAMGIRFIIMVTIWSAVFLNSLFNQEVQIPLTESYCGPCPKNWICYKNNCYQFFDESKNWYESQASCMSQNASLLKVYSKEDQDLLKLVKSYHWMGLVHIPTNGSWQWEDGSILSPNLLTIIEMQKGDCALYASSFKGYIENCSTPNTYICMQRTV

T2: Human CLEC12A expressed on cells (Ba/F3-hCLEC12A, PL21, HL60) (human, UniProt Q5QGZ9 1-265)
T2 sequence: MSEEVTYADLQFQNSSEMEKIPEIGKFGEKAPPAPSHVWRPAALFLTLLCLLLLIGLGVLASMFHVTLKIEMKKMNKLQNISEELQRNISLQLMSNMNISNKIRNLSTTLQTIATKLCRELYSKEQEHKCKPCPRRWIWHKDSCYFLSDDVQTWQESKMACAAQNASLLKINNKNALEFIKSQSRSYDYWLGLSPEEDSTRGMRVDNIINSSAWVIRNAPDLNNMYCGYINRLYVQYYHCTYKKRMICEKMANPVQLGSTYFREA

T3: recombinant human CLEC12A-His (human, UniProt Q5QGZ9 65-265)
T3 construct: also called hCLEC12A-His; hCLEC12A
T3 sequence: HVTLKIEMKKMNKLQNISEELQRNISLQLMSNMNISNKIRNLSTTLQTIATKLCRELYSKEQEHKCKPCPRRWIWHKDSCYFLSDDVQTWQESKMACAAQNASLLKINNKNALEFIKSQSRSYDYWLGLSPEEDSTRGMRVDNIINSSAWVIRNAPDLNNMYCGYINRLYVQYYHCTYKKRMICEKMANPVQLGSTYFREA

B1: human CLEC12A expressed on cells (receptor)
chain: T2 sequence
notes: Transduced isogenic cells or endogenous expression on AML cells; also called RMA-hCLEC12A; Ba/F3-hCLEC12A
B2: AB0237-Dead-2D (other)
chain: QLQLQESGPGLVKPSETLSLTCTVSGFSLTNYGLHWIRQPPGKCLEWIGVIWSGGKTDYNPSLKSRVTISKDTSKNQFSLKLSSVQAADTAVYYCAKYDYDDSLDYWGQGTLVTVSSGGGGSGGGGSGGGGSGGGGSDIQMTQSPSSLSASVGDRVTITCHASQNINFWLSWYQQKPGKAPKLLIYEASNLHTGVPSRFSGSGSGTRFTLTISSLQPEDIATYYCQQSHSYPLTFGCGTKLEIKGSDKTHTCPPCPAPELLGGPSVFLFPPKPKDTLMISRTPEVTCVVVDVSHEDPEVKFNWYVDGVEVHNAKTKPREEQYNSTYRVVSVLTVLHQDWLNGKEYKCKVSNKALPAPIEKTISKAKGQPREPRVYTLPPCRDELTKNQVSLTCLVKGFYPSDIAVEWESNGQPENNYKTTPPVLVSDGSFTLYSKLTVDKSRWQQGNVFSCSVMHEALHNHYTQKSLSLSPG
heavy: EVQLVESGGGLVKPGGSLRLSCAASGFTFSSYSMNWVRQAPGKGLEWVSSISSSSSYIYYADSVKGRFTISRDNAKNSLYLQMNSLRAEDTAVYYCARGAPIGAAAGWFDPWGQGTLVTVSSASTKGPSVFPLAPSSKSTSGGTAALGCLVKDYFPEPVTVSWNSGALTSGVHTFPAVLQSSGLYSLSSVVTVPSSSLGTQTYICNVNHKPSNTKVDKKVEPKSCDKTHTCPPCPAPELLGGPSVFLFPPKPKDTLMISRTPEVTCVVVDVSHEDPEVKFNWYVDGVEVHNAKTKPREEQYNSTYRVVSVLTVLHQDWLNGKEYKCKVSNKALPAPIEKTISKAKGQPREPQVCTLPPSRDELTENQVSLTCLVKGFYPSDIAVEWESNGQPENNYKTTPPVLDSDGSFFLYSWLTVDKSRWQQGNVFSCSVMHEALHNHYTQKSLSLSPG
light: DIQMTQSPSTLSASVGDRVTITCRASNSISSWLAWYQQKPGKAPKLLIYEASSTKSGVPSRFSGSGSGTEFTLTISSLQPDDFATYYCQQYDDLPTFGGGTKVEIKRTVAAPSVFIFPPSDEQLKSGTASVVCLLNNFYPREAKVQWKVDNALQSGNSQESVTEQDSKDSTYSLSSTLTLSKADYEKHKVYACEVTHQGLSSPVTKSFNRGEC
B3: AB0192 TriNKET (bispecific antibody, human IgG1, kappa)
chain: EVQLVESGGGVVQPGGSLRLSCAASGFTFNAFGMHWVRQAPGKCLEWVAFISSGSTSIYYANTVKGRFTISRDNSKNTLYLQMNSLRAEDTAVYYCARDGYPTGGAMDYWGQGTSVTVSSGGGGSGGGGSGGGGSGGGGSDIQMTQSPSSLSASVGDRVTITCKASQDIYNYLSWFQQKPGKAPKPLIYRANILVSGVPSRFSGSGSGQDYTFTISSLQPEDIATYYCLQFDAFPFTFGCGTKLEIKGSDKTHTCPPCPAPELLGGPSVFLFPPKPKDTLMISRTPEVTCVVVDVSHEDPEVKFNWYVDGVEVHNAKTKPREEQYNSTYRVVSVLTVLHQDWLNGKEYKCKVSNKALPAPIEKTISKAKGQPREPRVYTLPPCRDELTKNQVSLTCLVKGFYPSDIAVEWESNGQPENNYKTTPPVLVSDGSFTLYSKLTVDKSRWQQGNVFSCSVMHEALHNHYTQKSLSLSPG
heavy: B2 heavy
light: DIQMTQSPSSVSASVGDRVTITCRASQGISSWLAWYQQKPGKAPKLLIYAASSLQSGVPSRFSGSGSGTDFTLTISSLQPEDFATYYCQQGVSFPRTFGGGTKVEIKRTVAAPSVFIFPPSDEQLKSGTASVVCLLNNFYPREAKVQWKVDNALQSGNSQESVTEQDSKDSTYSLSSTLTLSKADYEKHKVYACEVTHQGLSSPVTKSFNRGEC
B4: F3'-1295 TriNKET (other)
chain: B2 chain with A180I
heavy: B2 heavy
light: B3 light
B5: scFv-1602 displayed on yeast (scFv)
scFv: QLQLQESGPGLVKPSETLSLTCTVSGFSLTNYGLHWIRQPPGKCLEWIGVIWSGGKTDYNPSLKSRVTISKDTSKNQFSLKLSSVQAADTAVYYCAKYDYDDSLDYWGQGTLVTVSSGGGGSGGGGSGGGGSGGGGSDIQMTQSPSSLSASVGDRVTITCHASQNINFWLSWYQQKPGKAPKLLIYEASNLHTGVPSRFSGSGSGTRFTLTISSLQPEDIATYYCQQSHSYPLTFGCGTKLEIK

Numbering of substitutions follows the chain as printed. Values joined by “and” are separate entries in the source; they are usually repeats but may differ in a detail not shown here. Identical values can stand only once.

One test concerns the target T4, AB0300 (Homo sapiens (Human), UniProt P0DOX5 2-448 = IgG part; P0DOX7 1-214, L234A; L235A; P329G).
T4 construct: AB0237 with LALAPG in both Fc chains
In words: flow cytometry on Ba/F3-hCLEC12A cells, fold over background. Background: A flow cytometer gives signals particle by particle.

In test [1] the target is T1, human NKG2D on effector cells. In words: cell-based or functional assay.
In test [2] the target is T2, Human CLEC12A expressed on cells …. In words: cell-based or functional assay.
Test [3] has the same target. In words: cell-based or functional assay. The source holds these as a separate data set.
Test [4] has the same target. In words: cell-based or functional assay. The source holds these as a separate data set.
For test [5], the target named is B1. In words: flow cytometry, hCLEC12A+ Ba/F3.
Test [6] deals with T3, recombinant human CLEC12A-His. In words: SPR screening, semi-purified.
Experimental: Binding affinities of the 18 semi-purified TriNKETs for hCLEC12A were assessed by SPR in screening.
For test [7], the target named is B1. In words: flow cytometry (gMFI) on CLEC12A+ PL-21 AML cells.
Test [8] has as its target T3, recombinant human CLEC12A-His. In words: SPR 37C, average.
For test [9] the target is unchanged. In words: SPR 37C.
The target is the same in test [10]. In words: SPR, CLEC12A binding.
Test [11] has the same target. In words: flow cytometry of yeast-displayed scFv; x axis PE-A binding of Clec12a-his, y axis FITC-A scFv expression; CLEC12A-His concentration not printed on the sheet.

Experimental for AB0300: The cells were then incubated with a fluorophore conjugated anti-human IgG secondary antibody and were analyzed by flow cytometry. The mean fluorescence intensity (MFI) values were normalized to secondary antibody only controls to obtain fold over background (FOB) values.
100,000 cells were seeded per well into a 96-well plate for FACS staining. Cells were washed with PBS. Cells were incubated in a 1:2000 dilution of live/dead dye in PBS for 15 minutes, then washed with FACS buffer. TriNKETs or mAbs were diluted into FACS buffer, and 50 μl containing diluted TriNKET or mAb was added to cells. Cells were incubated on ice for 20 minutes. After the incubation, cells were washed with FACS buffer. Anti-human IgG-Fc secondary antibody was diluted into FACS buffer, and 50 μl was added per well for detection of the bound TriNKETs or mAbs. Cells were incubated for 20 minutes on ice, then washed with FACS buffer. 50 μl of fixation buffer was added to each well, and cells were incubated for 10 minutes at room temperature. Cells were washed with FACS buffer and resuspended in FACS buffer for analysis with BD FACS Celesta SN #H66034400085, or BD FACS Celesta SN #H66034400160. Cells of interest were identified using FSC vs. SSC plot, and an appropriately shaped gate was drawn around the cells. Within the gated cells, doublet cells were removed by viewing FSC-H vs FSC-A plot. Within the single cell population, live cells were gated. Within the live gate, the mean fluorescence intensity (MFI) of each sample and the secondary-only control was calculated. Fold-over-background (FOB) was calculated as the ratio of test article MFI over secondary-only background MFI. Data were fit to a four-parameter non-linear regression curve using GraphPad Prism 7.0.

Regarding B1, in the test with AB0300, the binding result is recorded as “binds”.
Take B2: the “EC50 nM, KHYG-1-CD16aV-mediated lysis of HL-60” value in test [1] is 2.5 nM.
For the molecule B3, the “EC50, rested NK cell lysis of PL21 cells (mean of six donors)” value in test [2] came to 0.61 nM. The “EC50, rested NK cells lysis of HL60 cells (mean of four donors)” value in test [3] worked out at 0.3 nM. Besides, in [4], the “% Max, ADCP activity of M0 macrophages against PL21 cells” value stood at 15% and the “EC50, ADCP activity of M0 macrophages against PL21 cells” value was found to be 0.03 nM.
As to B4, the EC50 is 26.1 nM in [5] and 11.7 nM in test [7]. Further, in test [5], the “Max MFI” value is 48000 MFI. In addition, the Kd in test [6] is 2.94 nM; in test [8], 1.43 nM; in test [9], 1.43 nM and 1.42 nM and 1.44 nM; in test [10], 1.2 nM. Also, the koff in test [6] is 0.00153 s⁻¹; in [8], 0.000594 s⁻¹; in [9], 0.000587 s⁻¹ and 0.000589 s⁻¹ and 0.000605 s⁻¹ and 0.000596 s⁻¹. Also, the kon was 520000 M⁻¹ s⁻¹ in test [6]; 415000 M⁻¹ s⁻¹ in [8]; 411000 M⁻¹ s⁻¹ and 415000 M⁻¹ s⁻¹ and 419000 M⁻¹ s⁻¹ and 416000 M⁻¹ s⁻¹ in [9].
On to B5, for which the binding result in test [11] was “binds”.

Broadly, the EC50 is the concentration giving half of the maximal effect. The Kd is the constant that tells how readily two partners part at equilibrium. A word on the koff: it is a measure of how fast the partners let go of each other. For orientation: kon means the rate constant with which the complex forms.

The record behind these values is patent publication US20220119534A1 (DRAGONFLY THERAPEUTICS, published 2022).
